These results are taken from patent US20250074971A1.

Experiment [1] has as its target Senecavirus A (SVA) particles (Senecavirus A). As to the kind of experiment: ELISA, coated SVA, Fc control. In general terms: An ELISA detects its analyte on a solid surface through an enzyme-linked reagent.
Experiment [2] concerns the target Foot-and-Mouth Disease Virus (FMDV) particles (Foot-and-Mouth Disease Virus). In words: ELISA, coated FMDV, Fc control.

Regarding Fc, the A450 in experiment [1] was 0.218 A450; in experiment [2] it was 0.054 A450.
